The record followed here is US20100015637A1 (AbbVie / Abbott, published 2010).

Experiment [1] has as its target human PlGF-1 fragment (comprising amino acids 17-131) produced in human embryonic kidney cells (human) (UniProt P49763). The experiment in a line: … sandwich, capture MAb264, detection pAb264; antigen 250 pg/mL.
Experiment [2] concerns the target human PlGF-1 comprising amino acids 1-137 produced in human embryonic kidney cells (human) (UniProt P49763). Described as above.
Experiment [3] concerns the target recombinant human PlGF-1 (comprising amino acids 1-131) expressed in E. coli (R&D Systems) (human) (UniProt P49763). Described as above.
Experiment [4] deals with CHO human PlGF-1 comprising amino acids 1-137 (human PlGF-1-His (1-131), CHO 6305) (human) (UniProt P49763). The experiment is described as above.
Experiment [5] addresses CHO human PlGF-1 fragment (comprising amino acids 17-131; ATCC PTA-8540) (human) (UniProt P49763). The description is as above.
The target of experiment [6] is human PlGF-1 fragment (comprising amino acids 17-131) produced in human embryonic kidney cells (human) (UniProt P49763). In words: … sandwich, capture MAb264, detection pAb264; antigen 1500 pg/mL.
In experiment [7] the target is human PlGF-1 comprising amino acids 1-137 produced in human embryonic kidney cells (human) (UniProt P49763). The experiment is described as above.
Experiment [8] addresses recombinant human PlGF-1 (comprising amino acids 1-131) expressed in E. coli (R&D Systems) (human) (UniProt P49763). The experiment is described as above.
Experiment [9] has as its target CHO human PlGF-1 comprising amino acids 1-137 (human PlGF-1-His (1-131), CHO 6305) (human) (UniProt P49763). The description is as above.
Experiment [10] deals with CHO human PlGF-1 fragment (comprising amino acids 17-131; ATCC PTA-8540) (human) (UniProt P49763). Described as above.
Experiment [11] concerns the target human PlGF-1 fragment (comprising amino acids 17-131) produced in human embryonic kidney cells (human) (UniProt P49763). In words: … sandwich, capture MAb264, detection pAb264; antigen 0 pg/mL (blank).
The target of experiment [12] is human PlGF-1 comprising amino acids 1-137 produced in human embryonic kidney cells (human) (UniProt P49763). The experiment is described as above.
The target of experiment [13] is recombinant human PlGF-1 (comprising amino acids 1-131) expressed in E. coli (R&D Systems) (human) (UniProt P49763). The description is as above.
Experiment [14] deals with CHO human PlGF-1 comprising amino acids 1-137 (human PlGF-1-His (1-131), CHO 6305) (human) (UniProt P49763). The experiment is described as above.
The target of experiment [15] is CHO human PlGF-1 fragment (comprising amino acids 17-131; ATCC PTA-8540) (human) (UniProt P49763). Described as above.
The target in experiment [16] is human PlGF-1 fragment (comprising amino acids 17-131) produced in human embryonic kidney cells (human) (UniProt P49763). The experiment in a line: … sandwich, capture MAb264, detection pAb264; antigen 750 pg/mL.
In experiment [17] the target is human PlGF-1 comprising amino acids 1-137 produced in human embryonic kidney cells (human) (UniProt P49763). Described as above.
The target in experiment [18] is recombinant human PlGF-1 (comprising amino acids 1-131) expressed in E. coli (R&D Systems) (human) (UniProt P49763). The description is as above.
Experiment [19] has as its target CHO human PlGF-1 comprising amino acids 1-137 (human PlGF-1-His (1-131), CHO 6305) (human) (UniProt P49763). The experiment is described as above.
In experiment [20] the target is CHO human PlGF-1 fragment (comprising amino acids 17-131; ATCC PTA-8540) (human) (UniProt P49763). Described as above.
The target of experiment [21] is human PlGF-1 fragment (comprising amino acids 17-131) produced in human embryonic kidney cells (human) (UniProt P49763). The experiment in a line: … sandwich, capture MAb264, detection pAb264; antigen 60 pg/mL.
Experiment [22] concerns the target human PlGF-1 comprising amino acids 1-137 produced in human embryonic kidney cells (human) (UniProt P49763). Described as above.
Experiment [23] deals with recombinant human PlGF-1 (comprising amino acids 1-131) expressed in E. coli (R&D Systems) (human) (UniProt P49763). The experiment is described as above.
The target in experiment [24] is CHO human PlGF-1 comprising amino acids 1-137 (human PlGF-1-His (1-131), CHO 6305) (human) (UniProt P49763). Described as above.
Experiment [25] addresses CHO human PlGF-1 fragment (comprising amino acids 17-131; ATCC PTA-8540) (human) (UniProt P49763). The description is as above.
Experiment [26] concerns the target human PlGF-1 fragment (comprising amino acids 17-131) produced in human embryonic kidney cells (human) (UniProt P49763). In words: … sandwich, capture MAb264, detection pAb264; antigen 15 pg/mL.
In experiment [27] the target is human PlGF-1 comprising amino acids 1-137 produced in human embryonic kidney cells (human) (UniProt P49763). The experiment is described as above.
Experiment [28] deals with recombinant human PlGF-1 (comprising amino acids 1-131) expressed in E. coli (R&D Systems) (human) (UniProt P49763). The description is as above.
In experiment [29] the target is CHO human PlGF-1 comprising amino acids 1-137 (human PlGF-1-His (1-131), CHO 6305) (human) (UniProt P49763). Described as above.
Experiment [30] concerns the target CHO human PlGF-1 fragment (comprising amino acids 17-131; ATCC PTA-8540) (human) (UniProt P49763). The description is as above.
For experiment [31], the target named is T1, CHO human PlGF-1 comprising amino acids 1-137 (human PlGF-1-His (1-131), CHO 6305) (human, UniProt P49763 19-221, N-glycans at N21 (completely glycosylated) and N89 (partially glycosylated)).
T1 construct: Mature human PlGF-1 with 6xHis tag (137 amino acids); also called CHO (1-137)
T1 sequence: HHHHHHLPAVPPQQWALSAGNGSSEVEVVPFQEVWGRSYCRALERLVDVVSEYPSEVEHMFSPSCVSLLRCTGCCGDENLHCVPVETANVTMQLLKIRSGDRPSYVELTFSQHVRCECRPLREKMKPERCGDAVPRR
The experiment in a line: sandwich chemiluminescent EIA, 1-255-713 coated, acridinium 2-826-335 Fab'2 detection. How it is done:
After the capture reagent had been coated on the solid phase, it was removed and any unoccupied binding sites remaining on the plates were blocked using a 2% Fish Gel solution in PBS. The plates were washed and log 2 serial dilutions of recombinant antigen (rAg) lots, starting at 10,000 pg/mL in research phase […]® Human PlGF-1 calibrator diluent (which comprises a buffer containing MES, other salt, a protein blocker and an antimicrobial; Abbott Laboratories, Abbott Park, Ill.), were added to the plate for a one-hour incubation. Purified human PlGF-1 rAg (R&D Systems Minneapolis, Minn.) that was produced in E. coli was used as a positive control and purified NGAL) rAg was used as a negative control in this assay. […] Luminescence counts per second (LCPS) were measured on a Microbeta Jet instrument (Perkin Elmer, Waltham Mass.). The plate was loaded in the instrument where 100 μl of Architect Pre-trigger Solution (Abbott Laboratories, Abbott Park, Ill.) is added to each well, followed by 100 ul of Architect Trigger Solution is added before flash chemiluminescence is read and recorded. A calibration curve was generated with each rAg and recorded in the following graph.

With “monoclonal antibody 264 (mouse anti-human PlGF-1, Clone 37203, R&D Systems Catalog Number MAB264)”, the RLU in [1] came out at 77900 RLU; in experiment [2], 109000 RLU; in experiment [3] it was 196000 RLU; in experiment [4], 38900 RLU; in experiment [5] it was 46000 RLU; in experiment [6], 403000 RLU. Besides, the RLU is 507000 RLU in experiment [7]; 937000 RLU in experiment [8]; 201000 RLU in [9]; 223000 RLU in experiment [10]; 4880 RLU in [11]; 4750 RLU in experiment [12]. For the same molecule, the RLU in [13] amounted to 5110 RLU; in experiment [14] it was 4650 RLU; in experiment [15] it was 4680 RLU; in experiment [16], 206000 RLU; in experiment [17], 277000 RLU; in [18], 352000 RLU. The RLU in experiment [19] was 106000 RLU; in experiment [20] it was 120000 RLU; in experiment [21], 23500 RLU; in experiment [22] it was 31300 RLU; in experiment [23], 55000 RLU; in [24] it was 13800 RLU. For the same molecule, the RLU was 14800 RLU in experiment [25]; 8590 RLU in experiment [26]; 10400 RLU in [27]; 15600 RLU in experiment [28]; 6370 RLU in experiment [29]; 6870 RLU in [30].

B1: acridinium labeled Fab'2 fragment of human PlGF-1 antibody 2-826-335 (other)
VH: QVQLKQSGPGLVQPSQSLSITCTVSGFSLTTYGIHWVRQSPGKGLEWLGVMWSGGDTDYDAAFISRLSISKDNSKSQVFFKMNSLQANDTGIYYCARYRFYGMDYWGQGTSVTVSS
VL: AIQMTQSSSSFSVSLGDRVTITCKASEDIYNRFAWYQQKPGNAPRLLISGAASLEAGVPSRFSGSGSGQDYTLSITSLQTEDVATYYCQQYWSTPWTFGGGTKLEIKR
modifications: acridinium labeled
As for B1, the binding result in [31] is on record as “binds”.
